Laboratory results: the Immune Epitope Database (IEDB)
Values belong to the sequence of their own block, whether it stands above or below them.

How the values were obtained:
HLA-B*57:01 [1] = experiment: IEDB peptide-MHC binding, purified MHC/competitive/radioactivity; filed as Kd, often an IC50 or EC50 that approximates it; ≥ and ≤ were set here for values at or beyond the usual limits of such assays
HLA-B*57:01 [2] = experiment: IEDB peptide-MHC binding, purified MHC/competitive/radioactivity; ≥ and ≤ were set here for values at or beyond the usual limits of such assays
[3] = source organism: Human immunodeficiency virus 2
[4] = source organism: Simian immunodeficiency virus
[5] = source organism: Mammarenavirus choriomeningitidis

Kd (HLA-B*57:01 [1]; source organism: Homo sapiens): ≥ 70000 nM
Sequence: RVAGIHKKV

Sequence: KVGWAWWTC
IC50 (HLA-B*57:01 [2]; [3]): 3000 nM

Sequence: LKSLYNTVC
Kd (HLA-B*57:01 [1]; [4]): ≥ 30000 nM

IC50 (HLA-B*57:01 [2]; source organism: Homo sapiens): 1000 nM
Sequence: TVAPFNPTV

Sequence: SSCIAQDNC
Kd (HLA-B*57:01 [1]; [4]): ≥ 50000 nM

IC50 (HLA-B*57:01 [2]; source organism: Homo sapiens): 100 nM
Sequence: ATIKLQSTV

IC50 (HLA-B*57:01 [2]; source organism: Homo sapiens): 10000 nM
Sequence: KIYEGQVEV

Sequence: WIQLGLQKC
Kd (HLA-B*57:01 [1]; [3]): ≥ 10000 nM

Sequence: SIFLHLVKI
IC50 (HLA-B*57:01 [2]; [5]): 500 nM

Sequence: QAQLNAWGC
Kd (HLA-B*57:01 [1]; [4]): ≥ 40000 nM

IC50 (HLA-B*57:01 [2]; source organism: Homo sapiens): 200 nM
Sequence: RTFHHGVRV

Sequence: IVSSLHLSI
IC50 (HLA-B*57:01 [2]; [5]): 1000 nM

IC50 (HLA-B*57:01 [2]; source organism: Homo sapiens): 10000 nM
Sequence: KSNGTIIHV

IC50 (HLA-B*57:01 [2]; source organism: Homo sapiens): 2000 nM
Sequence: VTTDIQVKV

Kd (HLA-B*57:01 [1]; source organism: Homo sapiens): ≥ 70000 nM
Sequence: KVAKVEPAV

Sequence: MYGLKGPDI
Kd (HLA-B*57:01 [1]; [5]): ≥ 50000 nM

Sequence: LLHSTYFPC
Kd (HLA-B*57:01 [1]; [4]): ≥ 50000 nM

Sequence: ATCGIFALI
IC50 (HLA-B*57:01 [2]; [5]): 200 nM

Sequence: MFEALPHII
Kd (HLA-B*57:01 [1]; [5]): ≥ 50000 nM

IC50 (HLA-B*57:01 [2]; source organism: Homo sapiens): 13.7 nM
Sequence: RARQLNYTI
